From patent publication US11819531B2, “Multifunctional zwitterionic polymer conjugates” (Kodiak Sciences Inc., priority 2009, dated 2023)

Tested on: Liver esterase from rabbit liver
Test: Camptothecin release study from camptothecin grafted copolymer (esterase incubation, GPC at 370 nm)
Format: in vitro ADME
Conditions: copolymer approximately 10 mg/ml in Tris Buffer, pH=8.0, rabbit liver esterase, 37° C.
Method: Samples of camptothecin grafted copolymer were prepared at approximately 10 mg/ml in Tris Buffer, pH=8.0. Liver esterase from rabbit liver (Sigma-Aldrich E0887-IKU, Lot #061K74451) was added to the sample and the sample was incubated at 37° C. for up to 65 hours.
GPC analysis of the samples was made using an HPLC system consisting of a Waters Alliance 2995 with Waters 2410 Refractive Index Detector, Waters 2996 Photodiode Array Detector, and a Shodex Protein KW-803 column. The mobile phase used for the elution was phosphate buffered saline containing 10% absolute ethanol. The flow rate was set to 1 ml/min and the presence of camptothecin monitored at 370 nm. Ten microliter injections of the samples were made at each time point.

Camptothecin PC-Copolymer [camptothecin grafted copolymer]
Camptothecin Released (Time 0 h): 0.059 mg/mL | Camptothecin Released (Time 1 h): 0.079 mg/mL | Camptothecin Released (Time 2 h): 0.132 mg/mL | Camptothecin Released (Time 3 h): 0.130 mg/mL | Camptothecin Released (Time 4 h): 0.128 mg/mL | Camptothecin Released (Time 17 h): 0.208 mg/mL | Camptothecin Released (Time 26 h): 0.251 mg/mL | Camptothecin Released (Time 41 h): 0.335 mg/mL | Camptothecin Released (Time 65 h): 0.427 mg/mL
